Source: patent publication US20250066450A1 (LASK PHARMA, published 2025)

Molecular target: T1, BMP10 (UniProt O95393 317-424)
T1 sequence (looked up): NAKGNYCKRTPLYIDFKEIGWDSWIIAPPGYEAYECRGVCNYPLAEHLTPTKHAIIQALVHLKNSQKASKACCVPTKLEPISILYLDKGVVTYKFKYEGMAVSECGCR
Assay: Biacore (SPR); Fc fusion captured with anti-Fc antibody, ligand injected (FIG. 3B)
Protocol: A Biacore™-based binding assay was used to compare ligand binding selectivity of the ALK6 variant-Fc dimeric complex (e.g., SEQ ID NO: 46) described above with that of ALK6 wt-Fc complexes (SEQ ID NO: 49). The Fc dimeric complexes were independently captured onto the system using an anti-Fe antibody. Ligands were injected and allowed to flow over the captured receptor protein.

binding result: no binding
B1: ALK6-Fc fusion polypeptide (SEQ ID NO: 89) (Fc fusion)
chain: KKEDGESTAPTPRPKVLRCYCSGHCPEDSVNNICSTDGYCFTMIEEDDSGLPVVTSGCLKLEGSDFQCRDTPIPHQRRSIECCTERNECNKDLHPTLPPVVIGPFFDGSIRTGGGGSGGGGSGGGGSGGGGSTHTCPPCPAPEAAGGPSVFLFPPKPKDTLMISRTPEVTCVVVDVSHEDPEVKFNWYVDGVEVHNAKTKPREEQYNSTYRVVSVLTVLHQDWLNGKEYKCKVSNKALPAPIEKTISKAKGQPREPQVYTLPPSREEMTKNQVSLTCLVKGFYPSDIAVEWESNGQPENNYKTTPPVLDSDGSFFLYSKLTVDKSRWQQGNVFSCSVMHEALHNHYTQKSLSLSPG
